In series [1] the target is T1, IRF8;PU.1 (Mus musculus;Mus musculus, UniProt P23611;P17433 1-424;1-272, |). Put plainly: EMSA; synergistic; LightShift Chemiluminescent EMSA Kit; buffer, salt and pH not stated; supershift incubation 4 °C, 20 min. As to conditions: protein: recombinant;recombinant; tags: Flag;Flag; copies: 1;1; label: 5'-biotin (both strands). In general terms: A gel shift assay detects complexes by their altered migration in electrophoresis.

The target of series [2] is T1, IRF8;PU.1. Put plainly: EMSA; synergistic; supershifted by anti-IRF8 and by anti-PU.1, not by control IgG; LightShift Chemiluminescent EMSA Kit; buffer, salt and pH not stated; supershift incubation 4 °C, 20 min. The settings on record: protein: recombinant;recombinant; tags: Flag;Flag; copies: 1;1; label: 5'-biotin (both strands).

T1 sequence (P23611 whole entry, chain 1 of 2, other chains not shown): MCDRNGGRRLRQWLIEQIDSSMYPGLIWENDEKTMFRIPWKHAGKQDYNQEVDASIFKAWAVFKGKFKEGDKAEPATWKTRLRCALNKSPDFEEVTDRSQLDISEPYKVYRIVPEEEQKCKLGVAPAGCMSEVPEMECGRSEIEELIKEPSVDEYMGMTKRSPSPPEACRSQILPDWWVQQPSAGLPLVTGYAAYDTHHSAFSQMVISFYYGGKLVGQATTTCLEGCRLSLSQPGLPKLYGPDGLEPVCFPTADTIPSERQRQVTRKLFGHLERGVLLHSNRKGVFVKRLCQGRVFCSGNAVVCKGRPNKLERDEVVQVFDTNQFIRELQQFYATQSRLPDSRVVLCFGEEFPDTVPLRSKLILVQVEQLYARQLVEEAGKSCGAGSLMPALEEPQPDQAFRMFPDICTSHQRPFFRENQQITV

B1: Nfkb1 probe (dsDNA)
DNA 1: TCCCCCCTGGTTTCCCTTCCTGTAAATACA
DNA 2: TGTATTTACAGGAAGGGAAACCAGGGGGGA
As for B1, in the series with IRF8;PU.1 [1], the binding result is on record as “binds”.

B2: Ripk2 probe (dsDNA)
DNA 1: ACAGTCTTACTTTCACTTCCTGAATTCATT
DNA 2: AATGAATTCAGGAAGTGAAAGTAAGACTGT
Turning to B2, the binding result with IRF8;PU.1 [2] is listed as “binds”.

B3: Tak1 probe (dsDNA)
DNA 1: CCTTCCATGGTTTCAGTTCCTCTTAAGGGA
DNA 2: TCCCTTAAGAGGAACTGAAACCATGGAAGG
For B3, the binding result with IRF8;PU.1 [2] is listed as “binds”.

B4: Ikbkb probe (dsDNA)
DNA 1: CCGTCCTCAGTTTCACTTCCTGTCAGTGCT
DNA 2: AGCACTGACAGGAAGTGAAACTGAGGACGG
Consider B4, for which the binding result with IRF8;PU.1 [1] is “binds”.

These data come from PMC6340890, “Transcriptional mechanism of IRF8 and PU.1 governs microglial activation in neurodegenerative condition”.
